Measurements from patent US20260008815A1, “CYCLIC PEPTIDE OR SALT THEREOF, AND USES THEREOF” (FUJIFILM Corporation, priority 2023, published 2026).
Numbered stars: 1 amine (or outer) side, 2 acyl side, 3 side chain; on linkers, the order of the positions; unused ones are H or OH. Bridge positions count the residues as written; N and C are the ends. Ends that are not written are not given here. acetyl = acetyl (haloacetyl before ring closure) on the side-chain amine, O=C(C[*:1])[*:2]; COCH2 = acetyl group that carries the bridge

Each substance was assayed against T1, Recombinant Human FGFR2 alpha (IIIc) Fc Chimera Protein (Homo sapiens, UniProt P21802) (assay: ELISA binding affinity of enzymatically synthesized peptide to FGFR). Settings: ELISA luminescence signal at 10 nmol/L peptide, SEQ ID NO: 47 at 10 nmol/L standardized to 1; enzyme synthesis product.
T1 construct: Fc (chimera); purchased R&D systems 712-FR-050
In short: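 FGFR2 alpha (IIIc) Fc chimera (5 ng/well) was immobilized, and Myc-tagged peptide was bound 3 h at room temperature, then detected with anti-Myc antibody (2 h) and chemiluminescent substrate. Signal was corrected against FGFR-free wells. Score A–D was the luminescence at 10 nmol/L peptide, normalized to cyclic peptide SEQ ID NO: 47.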

T1 sequence (P21802 with tags, fused parts or gaps limits assumed): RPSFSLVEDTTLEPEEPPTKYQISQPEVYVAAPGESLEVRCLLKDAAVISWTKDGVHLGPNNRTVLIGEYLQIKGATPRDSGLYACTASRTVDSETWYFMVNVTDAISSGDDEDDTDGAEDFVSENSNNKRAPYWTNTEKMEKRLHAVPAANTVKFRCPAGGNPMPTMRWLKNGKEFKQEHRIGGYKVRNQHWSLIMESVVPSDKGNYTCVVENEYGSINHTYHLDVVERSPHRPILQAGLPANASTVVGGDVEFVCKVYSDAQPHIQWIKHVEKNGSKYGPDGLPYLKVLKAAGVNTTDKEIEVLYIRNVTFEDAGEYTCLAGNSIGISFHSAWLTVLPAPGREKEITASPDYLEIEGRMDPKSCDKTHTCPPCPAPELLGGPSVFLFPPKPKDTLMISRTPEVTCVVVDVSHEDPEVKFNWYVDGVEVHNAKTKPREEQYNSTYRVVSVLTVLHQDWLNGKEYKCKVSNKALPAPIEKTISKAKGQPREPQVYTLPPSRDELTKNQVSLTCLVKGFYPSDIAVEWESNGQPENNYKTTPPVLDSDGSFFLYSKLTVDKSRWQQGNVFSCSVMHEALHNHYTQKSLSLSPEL

For “412 (QCEYALQYYRFYVAQRHWVDKL; Description of Artificial Sequence: Cyclic peptide) [compound 412]”, which “Evaluation result of binding affinity to FGFR” value (“Evaluation result” for short) is on record?
Its value is “C (0.1 or more and less than 0.5)”.

With “167 (YCEPNYLDPEQYQYFIYFK(COCH2)Y; thioether 2-19 (inferred)) [compound 167]” as the substance, how does the “Evaluation result” value read?
The value was “A (0.7 or more)”.

With “115 (NCPNYWSQIQWHYFQAYK(COCH2)Q; thioether 2-18 (inferred)) [compound 115]” as the substance, how does the “Evaluation result” value read?
Its value is “A (0.7 or more)”.

How did the “Evaluation result” value turn out when “348 (YCMENYLDPEQYQYFIYFK(COCH2)Y; thioether 2-19) [compound 348]” was run?
The value was “A (0.7 or more)”.

“331 (YCEENYLDPEQYAYFIYFK(COCH2)Y; thioether 2-19 (inferred)) [compound 331]” was tested. Which “Evaluation result” value did it give?
Its value is “A (0.7 or more)”.

For “99 (QCPQEFINPVQWRYFQHYK(COCH2)N; thioether 2-19) [compound 99]”, which “Evaluation result” value is on record?
The value was “C (0.1 or more and less than 0.5)”.

Which “Evaluation result” value does the source give for “97 (QCPQSFINPVQWRYFQHYK(COCH2)N; thioether 2-19) [compound 97]” here?
Its value is “C (0.1 or more and less than 0.5)”.

How did the “Evaluation result” value turn out when “70 (KCAPQNFINPVQWRYFQHYK(COCH2)N; thioether 2-20 (inferred)) [compound 70]” was run?
Its value is “B (0.5 or more and less than 0.7)”.

For “187 (YCEENFLDPEQYQYFIYFK(COCH2)Y; thioether 2-19 (inferred)) [compound 187]”, which “Evaluation result” value is on record?
Its value is “A (0.7 or more)”.

With “76 (FCPQNFINPVQWRYFQHYK(COCH2)N; thioether 2-19 (inferred)) [compound 76]” as the substance, how does the “Evaluation result” value read?
Its value is “A (0.7 or more)”.

For “293 (YCEENYLDPEQYQYFILFK(COCH2)Y; thioether 2-19) [compound 293]”, which “Evaluation result” value is on record?
The value was “A (0.7 or more)”.

How did the “Evaluation result” value turn out when “280 (YCEENYLDPEQYQYFFYFK(COCH2)Y; thioether 2-19) [compound 280]” was run?
Its value is “A (0.7 or more)”.

How did the “Evaluation result” value turn out when “429 (YCHENYLDPEQYQYFHYFK(COCH2); thioether 2-19 via acetyl) [compound 429]” was run?
Its value is “C (0.1 or more and less than 0.5)”.

With “201 (YCEENYQDPEQYQYFIYFK(COCH2)Y; thioether 2-19 (inferred)) [compound 201]” as the substance, how does the “Evaluation result” value read?
The value was “A (0.7 or more)”.

With “312 (YCEENYLDPEQYQYFIYFK(COCH2)F; thioether 2-19 (inferred)) [compound 312]” as the substance, how does the “Evaluation result” value read?
Its value is “A (0.7 or more)”.

For “344 (YCEENYLDPEQYQYFKYFK(COCH2)Y; thioether 2-19) [compound 344]”, which “Evaluation result” value is on record?
Its value is “A (0.7 or more)”.

For “406 (PCEQQNFHSVIQWHFFAQYK(COCH2)N; thioether 2-20 (inferred)) [compound 406]”, which “Evaluation result” value is on record?
Its value is “A (0.7 or more)”.

Which “Evaluation result” value does the source give for “250 (YCEENYLDPHQYQYFIYFK(COCH2)Y; thioether 2-19 (inferred)) [compound 250]” here?
Its value is “A (0.7 or more)”.

How did the “Evaluation result” value turn out when “324 (YCEANYLDPEQYQYFIYFK(COCH2)Y; thioether 2-19 (inferred)) [compound 324]” was run?
Its value is “A (0.7 or more)”.

For “42 (QCYFLSQYILERYKVHK(COCH2)L; thioether 2-17 via acetyl) [compound 42]”, which “Evaluation result” value is on record?
The value was “A (0.7 or more)”.

“409 (LCNNWENYFDWLQWSYYIAYK(COCH2)E; thioether 2-21 (inferred)) [compound 409]” was tested. Which “Evaluation result” value did it give?
Its value is “A (0.7 or more)”.

Which “Evaluation result” value does the source give for “245 (YCEENYLDPQQYQYFIYFK(COCH2)Y; thioether 2-19 (inferred)) [compound 245]” here?
The value was “A (0.7 or more)”.

Which “Evaluation result” value does the source give for “332 (YCEENYLDPEQYQYFAYFK(COCH2)Y; thioether 2-19 (inferred)) [compound 332]” here?
Its value is “A (0.7 or more)”.

With “89 (QCPQNFINPVQWRYYQHYK(COCH2)N; thioether 2-19 (inferred)) [compound 89]” as the substance, how does the “Evaluation result” value read?
Its value is “B (0.5 or more and less than 0.7)”.

With “275 (YCEENYLDPEQYQYLIYFK(COCH2)Y; thioether 2-19) [compound 275]” as the substance, how does the “Evaluation result” value read?
Its value is “A (0.7 or more)”.

“310 (YCEENYLDPEQYQYFIYFK(COCH2)I; thioether 2-19 (inferred)) [compound 310]” was tested. Which “Evaluation result” value did it give?
The value was “A (0.7 or more)”.

How did the “Evaluation result” value turn out when “104 (QCPQNFINPVQYRYFQHYK(COCH2)N; thioether 2-19 (inferred)) [compound 104]” was run?
The value was “B (0.5 or more and less than 0.7)”.

How did the “Evaluation result” value turn out when “399 (QK(COCH2)PQNFINPVQWRYFQHYCN; thioether 2-19 (inferred)) [compound 399]” was run?
Its value is “C (0.1 or more and less than 0.5)”.

How did the “Evaluation result” value turn out when “370 (DCQLYYLYQYVLTK(COCH2)V; thioether 2-14) [compound 370]” was run?
The value was “C (0.1 or more and less than 0.5)”.

For “366 (DCQQYYLYLYLWK(COCH2)I; thioether 2-13) [compound 366]”, which “Evaluation result” value is on record?
The value was “C (0.1 or more and less than 0.5)”.

How did the “Evaluation result” value turn out when “304 (YCEENYLDPEQYQYFIRFK(COCH2)Y; thioether 2-19 (inferred)) [compound 304]” was run?
The value was “A (0.7 or more)”.

With “131 (YCEENYLDPEQYQYFIYFK(COCH2)Y; thioether 2-19 (inferred)) [compound 131]” as the substance, how does the “Evaluation result” value read?
The value was “A (0.7 or more)”.

How did the “Evaluation result” value turn out when “338 (YCEENKLDPEQYQYFIYFK(COCH2)Y; thioether 2-19 (inferred)) [compound 338]” was run?
The value was “C (0.1 or more and less than 0.5)”.

For “164 (YCRENYLDPEQYQYFIYFK(COCH2)Y; thioether 2-19 (inferred)) [compound 164]”, which “Evaluation result” value is on record?
The value was “A (0.7 or more)”.

Which “Evaluation result” value does the source give for “326 (YCEENALDPEQYQYFIYFK(COCH2)Y; thioether 2-19 (inferred)) [compound 326]” here?
The value was “C (0.1 or more and less than 0.5)”.

Which “Evaluation result” value does the source give for “308 (YCEENYLDPEQYQYFIYFK(COCH2)G; thioether 2-19 (inferred)) [compound 308]” here?
The value was “A (0.7 or more)”.

Which “Evaluation result” value does the source give for “272 (YCEENYLDPEQYQFFIYFK(COCH2)Y; thioether 2-19) [compound 272]” here?
The value was “A (0.7 or more)”.

For “107 (YCTDNYIDDIQFWYLFLYK(COCH2)Q; thioether 2-19 (inferred)) [compound 107]”, which “Evaluation result” value is on record?
Its value is “B (0.5 or more and less than 0.7)”.

Which “Evaluation result” value does the source give for “202 (YCEENYSDPEQYQYFIYFK(COCH2)Y; thioether 2-19 (inferred)) [compound 202]” here?
The value was “B (0.5 or more and less than 0.7)”.

With “354 (YCEENYLDPMQYQYFIYFK(COCH2)Y; thioether 2-19) [compound 354]” as the substance, how does the “Evaluation result” value read?
Its value is “A (0.7 or more)”.

For “230 (YCEENYLDSEQYQYFIYFK(COCH2)Y; thioether 2-19 (inferred)) [compound 230]”, which “Evaluation result” value is on record?
Its value is “A (0.7 or more)”.

With “163 (YCDENYLDPEQYQYFIYFK(COCH2)Y; thioether 2-19 (inferred)) [compound 163]” as the substance, how does the “Evaluation result” value read?
Its value is “A (0.7 or more)”.

With “57 (KCPQNAINPVQWRYFQHYK(COCH2)N; thioether 2-19 (inferred)) [compound 57]” as the substance, how does the “Evaluation result” value read?
The value was “B (0.5 or more and less than 0.7)”.

Which “Evaluation result” value does the source give for “181 (YCEEGYLDPEQYQYFIYFK(COCH2)Y; thioether 2-19 (inferred)) [compound 181]” here?
The value was “B (0.5 or more and less than 0.7)”.

How did the “Evaluation result” value turn out when “413 (QCDQDAIQWVYDLQYYRVWHKV; Description of Artificial Sequence: Cyclic peptide) [compound 413]” was run?
Its value is “C (0.1 or more and less than 0.5)”.

“92 (QCPQNFINPVQWRYFQHFK(COCH2)N; thioether 2-19 (inferred)) [compound 92]” was tested. Which “Evaluation result” value did it give?
The value was “A (0.7 or more)”.

For “103 (QCPQNFINPVQFRYFQHYK(COCH2)N; thioether 2-19 (inferred)) [compound 103]”, which “Evaluation result” value is on record?
The value was “B (0.5 or more and less than 0.7)”.

With “105 (QCPQNFINPVQSRYFQHYK(COCH2)N; thioether 2-19 (inferred)) [compound 105]” as the substance, how does the “Evaluation result” value read?
Its value is “C (0.1 or more and less than 0.5)”.

With “220 (YCEENYLHPEQYQYFIYFK(COCH2)Y; thioether 2-19 (inferred)) [compound 220]” as the substance, how does the “Evaluation result” value read?
The value was “A (0.7 or more)”.

Which “Evaluation result” value does the source give for “258 (YCEENYLDPEQYLYFIYFK(COCH2)Y; thioether 2-19 (inferred)) [compound 258]” here?
The value was “A (0.7 or more)”.

With “127 (YCPYNFYNIIQFHYFLTYK(COCH2)T; thioether 2-19 (inferred)) [compound 127]” as the substance, how does the “Evaluation result” value read?
Its value is “A (0.7 or more)”.

“422 (YCTQEQAFRQLAYYQIFRRSK(COCH2)S; thioether 2-21 via acetyl) [compound 422]” was tested. Which “Evaluation result” value did it give?
Its value is “C (0.1 or more and less than 0.5)”.

“256 (YCEENYLDPEQHQYFIYFK(COCH2)Y; thioether 2-19 (inferred)) [compound 256]” was tested. Which “Evaluation result” value did it give?
Its value is “A (0.7 or more)”.

Which “Evaluation result” value does the source give for “82 (TCPQNFINPVQWRYFQHYK(COCH2)N; thioether 2-19 (inferred)) [compound 82]” here?
Its value is “A (0.7 or more)”.
